Results from article doi:10.1101/2022.03.30.486221 (bioRxiv, 2022).

Molecular target: the molecule itself
Test: SEC

B1: recombinant His6-tagged StTGA2.1 (natural protein, UniProt A0A9F1U434 1-270, looked up)
chain: MDAMGDREGPRLVSSTALWRGDRRPAQVVQVSQLEQDFQRAPQQRESGSLPFDTEYSRWLEEHTKHINELRTAVNSHASDPELRSMVDSVIAHYDEVYRMKANAAKGNVEHLLSGMWKTPAERCSMWIGDFRPSLLLKLLVNQVEPLTEQQLIGIVNLQQSSQQAEDALSQDMEAWQQSLEVTLAYGSLATEGSSGDAAYNISQMAMAMGILGTLEGFLRQADNLRQQTLQQMHRMLTTRQSARALLAISEYFSRLRALSSLWLARPREQ
stoichiometry N: 2
